Results published in PMC2666074 (Biochemistry, 2008).
One block for each binder: values may come before it.

Tests used:
S100A6 (rabbit, intact) [1] = target: T1, S100A6 (rabbit, intact) (rabbit, UniProt P30801 1-90); assay: ITC
cross-linking = target: the molecule itself; assay: cross-linking
S100A6 (rabbit, intact) [2] = target: T1, S100A6 (rabbit, intact); assay: native MS
S100A6 (rabbit, intact) [3] = target: T1, S100A6 (rabbit, intact); assay: NMR titration

Kd (S100A6 (rabbit, intact) [1]): 20 µM
B1: SIP(189–203) (peptide)
chain: SEGLMNVLKKIYEDG

binding result (S100A6 (rabbit, intact) [1]): binds
B2: SIP(178–229), SGS domain of SIP (domain or fragment)
chain: EKPSYDTEADPSEGLMNVLKKIYEDGDDDMKRTINKAWVESREKQAREDTEF

stoichiometry N (S100A6 (rabbit, intact) [2]): 2 SIP(189–219) per S100A6 dimer | Kd (S100A6 (rabbit, intact) [1]): 5 µM | stoichiometry N (S100A6 (rabbit, intact) [3]): 2 SIP per S100A6 dimer
B3: SIP(189–219) (peptide, UniProt Q9CXW3 189-219, looked up)
chain: SEGLMNVLKKIYEDGDDDMKRTINKAWVESR
binding result (cross-linking): binds
